Assay [1] addresses OmpG^Q224-FLAG (Escherichia coli) (UniProt P76045). In words: single-channel current recording, 30 nM antibody, 50 mV, 30 pA pores.
For assay [2] the target is unchanged. In words: single-channel current recording, 30 nM FG4R.
For assay [3], the target named is OmpG^L3-FLAG (Escherichia coli) (UniProt P76045). In words: single-channel current recording, N=3 pores, n=9 binding events.

Substance “FLAG tag monoclonal antibody OTI4C5 (OriGene Technologies)” came in with a reduction in current in the bound state in assay [1] of 20 pA.
“Monoclonal mouse anti-FLAG antibody FG4R [RRID AB_1957945]”: the reduction of current flow in the bound state in assay [2] was found to be 10%. The same substance displayed a reduction in pore conductance in the bound state in assay [3] of 5.02%.

(Values after US20240036027A1.)
